Test results from patent US12365732 (23ANDME, dated 2025).

T1: hu-CD96 isoform 1 on HEK293T cells (human, UniProt P40200 22-585)
T1 construct: Origene RC213845, transient expression; also called HEK293T-CD96 (iso1)
T1 sequence: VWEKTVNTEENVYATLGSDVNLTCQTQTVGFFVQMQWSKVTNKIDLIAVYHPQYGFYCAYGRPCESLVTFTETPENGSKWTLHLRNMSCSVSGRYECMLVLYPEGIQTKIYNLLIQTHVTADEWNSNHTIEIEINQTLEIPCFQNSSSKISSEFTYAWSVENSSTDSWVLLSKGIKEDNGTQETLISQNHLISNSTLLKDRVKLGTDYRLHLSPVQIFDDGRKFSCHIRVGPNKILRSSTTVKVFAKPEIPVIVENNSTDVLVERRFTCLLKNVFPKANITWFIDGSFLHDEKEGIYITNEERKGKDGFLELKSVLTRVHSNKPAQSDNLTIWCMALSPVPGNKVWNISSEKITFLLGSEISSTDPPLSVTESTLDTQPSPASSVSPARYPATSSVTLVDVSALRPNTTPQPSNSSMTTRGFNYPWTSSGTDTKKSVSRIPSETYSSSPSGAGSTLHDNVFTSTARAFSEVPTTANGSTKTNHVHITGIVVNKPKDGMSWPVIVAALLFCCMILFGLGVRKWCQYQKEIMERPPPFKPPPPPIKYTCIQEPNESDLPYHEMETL

T2: cynomolgus monkey CD96 on cynomolgus monkey PBMCs (cynomolgus monkey, UniProt A0A2K5TWV6 22-569)
T2 construct: whole, on cells
T2 sequence: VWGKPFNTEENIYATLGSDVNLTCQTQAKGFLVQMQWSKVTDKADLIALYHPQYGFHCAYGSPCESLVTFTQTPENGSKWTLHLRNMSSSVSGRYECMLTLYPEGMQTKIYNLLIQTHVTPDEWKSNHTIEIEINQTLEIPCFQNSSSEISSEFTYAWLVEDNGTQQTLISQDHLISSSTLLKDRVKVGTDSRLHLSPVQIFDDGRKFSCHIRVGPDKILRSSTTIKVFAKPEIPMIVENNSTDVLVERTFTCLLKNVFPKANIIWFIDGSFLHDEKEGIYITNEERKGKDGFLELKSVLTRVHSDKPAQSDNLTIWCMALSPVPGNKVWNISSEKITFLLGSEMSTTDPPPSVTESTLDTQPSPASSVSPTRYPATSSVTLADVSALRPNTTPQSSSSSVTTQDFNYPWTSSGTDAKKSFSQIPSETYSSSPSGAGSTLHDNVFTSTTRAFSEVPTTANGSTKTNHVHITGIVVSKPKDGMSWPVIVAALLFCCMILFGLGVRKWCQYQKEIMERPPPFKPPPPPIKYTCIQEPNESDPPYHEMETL

B1: mAb1.v7 IgG (humanized 12F8) (antibody, V domains shown)
VH: EVQLVQSGAEVKKPGASVKVSCKASGFTFTNNWMHWVRQAPGQGLEWIGMIHPNSGITNINEKFKNRVTMTTDTSTSTAYMELRSLRSEDTAVYYCRSDGTYEGYFDYWGQGTLVTVSS
VL: DIQLTQSPSSLSASVGDRVTITCKASQNVGTAIVWYQQKPGKAPKVLIYSASTRYTGVPSRFSGSGSGTDFTLTISSLQPEDFATYYCQQYSSSPLTFGQGTKVEIKG
notes: human IgG1 N297G
B2: mAb1.v7.NGS9 IgG (antibody, V domains shown)
VH: EVQLVQSGAEVKKPGASVKVSCKASGFTFTNNFMHWVRQAPGQGLEWIGMIHANSGITNINEKFKNRVTMTTDTSTSTAYMELRSLRSEDTAVYYCRSDGVYEGYFDYWGQGTLVTVSS
VL: DIQLTQSPSSLSASVGDRVTITCKASQNVGTAIVWYQQKPGKAPKVLIYSASTRYTGVPSRFSGSGSGTDFTLTISSLQPEDFATYYCQQYSSSPLTFGQGTKVEIKG
notes: human IgG1 N297G
B3: mAb1.v7.NGS11 IgG (antibody, V domains shown)
VH: EVQLVQSGAEVKKPGASVKVSCKASGFTFTNNFMHWVRQAPGQGLEWIGFIHANSGITNINEKFKNRVTMTTDTSTSTAYMELRSLRSEDTAVYYCRSDGVYEGYFDYWGQGTLVTVSS
VL: DIQLTQSPSSLSASVGDRVTITCKASQNVGTAIVWYQQKPGKAPKVLIYSASTRYTGVPSRFSGSGSGTDFTLTISSLQPEDFATYYCQQYSSSPLTFGQGTKVEIKG
notes: human IgG1 N297G
B4: mAb1.v7.NGS10 IgG (antibody, V domains shown)
VH: EVQLVQSGAEVKKPGASVKVSCKASGFTFTNNFMHWVRQAPGQGLEWIGFIHANSGITNINEKFKNRVTMTTDTSTSTAYMELRSLRSEDTAVYYCRSDGIYEGYFDYWGQGTLVTVSS
VL: DIQLTQSPSSLSASVGDRVTITCKASQNVGTAIVWYQQKPGKAPKVLIYSASTRYTGVPSRFSGSGSGTDFTLTISSLQPEDFATYYCQQYSSSPLTFGQGTKVEIKG
notes: human IgG1 N297G
B5: 10G1 (clone 10G1.3G8), purified hybridoma antibody (antibody, V domains shown)
VH: QIQLVQSGPELKKPGETVKISCKASGYPFTTYGMSWVKQAPGKGLKWMGWINTDSGVPTYADDFKGRFAFSLETSANTAYLQINSLKNEDAATYFCARNIYYGWGNFDYWGQGTILTVSS
VL: DILMTQSPTTLSVTPGETVSLSCRASQDIYRNLHWYQQKSQGTPRLLIKHASDSISGIPSRFTGSGSGTDFTLSINSVKPEDEGIYYCLQGYSMPYTFGGGTKLEIK
notes: murine hybridoma IgG
B6: h10G1 IgG (humanized 10G1) (antibody, V domains shown)
VH: EIQLVQSGSELKKPGASVKVSCKASGYPFTTYGMSWVRQAPGQGLEWMGWINTDSGVPTYADDFKGRFVFSLDTSVSTAYLQISSLKAEDTAVYFCARNIYYGWGNFDYWGQGTLVTVSS
VL: EIVMTQSPDFQSVTPKEKVTITCRASQDIYRNLHWYQQKPDQTPKLLIKHASDSISGIPSRFSGSGSGTDFTLTINSLEAEDAAAYYCLQGYSMPYTFGGGTKVEIKG
notes: human IgG1 N297G
B7: 9H4, purified hybridoma antibody (antibody, V domains shown)
VH: EVQLLETGGGLVKSGGSLKLSCAASGFTFSDYYMYWVRQTPEKRLEWVAAISDDGTYTYYPDSVKGRFTISRDNANNYLYLQMSSLKSEDTAIYYCAKAGSYDYFDVWGAGTTVTVSS
VL: DIVLTQSPASLAVSLGQRAIISCKASQSVTFADTGLMHWYQQKPGQQPKLLIYRASNLEVGVPTRFSGSGSGTDFTLNIHPVEEEDVATYYCQQSREYPWTFGGGTKLEIK
notes: murine hybridoma IgG
B8: 7E5, purified hybridoma antibody (antibody, V domains shown)
VH: QVQLKESGPGLVAPSQSLSIICTVSGFSLTNYGIHWIRQPPGKGLEWLGIIWAGGSTNYNSALMSRLTISKDNSKSQVFLKMNSLQTNDTAIYYCARVSMMGFAYWGQGTLVTVSA
VL: QAVVTQESALTTSPGETVTLTCRSSTGAVTTSNYANWVQEKPDHLFTGLIGGTNNRAPGVPARFSGSLIGDKAALTITGAQTEDEAIYFCSLWYGSHWVFGGGTKLTVL
notes: murine hybridoma IgG

What was measured:
[1] = target: T1, hu-CD96 isoform 1 on HEK293T cells; assay: FACS, Ab 0.4 nM
Method: (§1) Isoform 1 of hu-CD96 (Origene, catalog #RC213845) was transiently expressed in HEK293T cells following standard lipofectamine or Fugene transfection protocol. […] Cells were washed, and binding was detected by incubation with anti-mouse IgG-FITC (Biolegend, catalog #406001) for 20 minutes at 4° C. Cell binding was analyzed by flow cytometry with a CytoFLEX (Beckman Coulter). Binding curves were calculated as a percentage of cells positive for bound antibody.

[2] = target: T1, hu-CD96 isoform 1 on HEK293T cells; assay: FACS, % positive curve
Method: as §1

[3] = target: T2, cynomolgus monkey CD96 on cynomolgus …; assay: FACS, Ab 3.2 nM
Method: The ability of the anti-CD96 antibodies to bind primary immune cells from human and cynomolgus monkey with lower level of receptor expression was measured. Human PBMCs (StemCell Technologies, catalog #70025) and cynomolgus monkey PBMCs (Primate Biologicals, catalog #CM-MC) were incubated with human TruStain FcX (Biolegend, catalog #422302) for 10 minutes at 4° C., followed by incubation with an anti-CD96 antibody for 20 minutes at 4° C. Cells were washed and the anti-CD96 antibody binding was detected by incubation with anti-mouse IgG-PE (Thermo Fisher, catalog #M30204) or anti-human IgG (Fab) 2-PE (Thermo Fisher, catalog #H10104) for 20 minutes at 4° C. Cells were washed, and immune subtypes were labeled with anti-CD3 (BD, catalog #557705), anti-CD4 (Biolegend, catalog #317424) and anti-CD8 (BD, catalog #557760) for 20 minutes at 4° C. Cell binding was analyzed by flow cytometry with a CytoFLEX (Beckman Coulter). Binding curves were calculated as a percentage of cells positive for bound antibody in the cell type of interest.

hu-CD96 Fc = target: T3, hu-CD96 Fc (human, biotinylated in Table 16); assay: SPR 37C, biotin-CD96-Fc captured, IgG analyte
T3 construct: also called biotinylated hu-CD96-Fc
Method: (§2) Briefly, a 1:4 dilution of Biotin CAPture Reagent (GE Healthcare) into HBS-EP buffer (0.01 M HEPES pH 7.4, 0.15 M NaCl, 3 mM EDTA, 0.005% Surfactant P20) was applied to the chip at 2 µL/min flow rate. For the kinetics measurements, 20 nM biotinylated hu-CD96-Fc and cy-CD96-Fc was captured at 10 µL/min to achieve ~50 response units in the second flow cell (FC2). FC1 was kept as a reference. Next, 4-fold serial dilutions of IgG in HBS-P buffer (0.01 M HEPES pH 7.4, 0.15 M NaCl, 0.005% surfactant P20) from low (3.125 nM) to high (200 nM) concentration were injected (flow rate: 10 µL/min) at 37° C. The sensorgram was recorded and subject to reference and buffer subtraction before evaluating by BIACORE® 8K Evaluation Software (version 1.1.1.7442). Association rates ($kon$) and dissociation rates ($koff$) were calculated using a simple one-to-one Langmuir binding model. The equilibrium dissociation constant (K_D) value was calculated as the ratio of $koff/kon$.

cy-CD96 Fc = target: T4, cy-CD96 Fc (cynomolgus monkey, biotinylated in Table 16); assay: SPR 37C, biotin-CD96-Fc captured, IgG analyte
T4 construct: also called biotinylated cy-CD96-Fc
Method: as §2

Row | Binder | % positive [1] [%] | EC50 [2] [nM] | % positive [3] [%] | Kd (hu-CD96 Fc) [nM] | koff (hu-CD96 Fc) [s⁻¹] | kon (hu-CD96 Fc) [M⁻¹ s⁻¹] | Kd (cy-CD96 Fc) [nM] | koff (cy-CD96 Fc) [s⁻¹] | kon (cy-CD96 Fc) [M⁻¹ s⁻¹]
1 | B1 | 12.2 | 2.6 | – | – | – | – | – | – | –
2 | B2 | – | – | 77.9 | 0.2 | 5.42e-05 | 266000 | 2.88 | 0.000734 | 255000
3 | B3 | – | – | 78.4 | 0.08 | 1.38e-05 | 173000 | 1.52 | 0.000513 | 338000
4 | B4 | – | – | 76.7 | 0.01 | 1.84e-06 | 144000 | 0.49 | 0.000374 | 767000
5 | B5 | 34.6 | 0.24 | – | – | – | – | – | – | –
6 | B6 | – | – | 58.1 | 0.64 | 0.000393 | 612000 | 1.13 | 0.00789 | 6.99e+06
7 | B7 | 13.9 | 2.1 | – | – | – | – | – | – | –
8 | B8 | 20.4 | 0.71 | – | – | – | – | – | – | –
